Molecular target: human HER2 (ErbB2) (human) (UniProt P04626)
Experiment: cell-based or functional assay

maximum inhibition of cell proliferation in SK-BR-3 cells: 66%
Substance: murine monoclonal antibody 4D5 (ATCC CRL 10463)

Reference: patent US20020001587A1
